Measurements as given in publication PMC6763467 (2019).

B1: E. coli MtlR fused with His6-tag (ecHisMtlR), wild type [E. coli] / E. coli histidine phosphocarrier protein HPr (dephosphorylated, untagged) [E. coli] (parent complex)
chain 1: MVDQAQDTLRPNNRLSDMQATMEQTQAFENRVLERLNAGKTVRSFLITAVELLTEAVNLLVLQVFRKDDYAVKYAVEPLLDGDGPLGDLSVRLKLIYGLGVINRQEYEDAELLMALREELNHDGNEYAFTDDEILGPFGELHCVAALPPPPQFEPADSSLYAMQIQRYQQAVRSTMVLSLTELISKISLKKAFQK
chain 2: not shown

Variants of: B1
Experiment: His-tag pull-down (Talon metal affinity chromatography), SDS-PAGE band densitometry; 200 μg His-MtlR, 200 μg HPr; 20 mM Tris-HCl (pH 7.5), 50 mM NaCl, 2 mM β-mercaptoethanol, 5% glycerol; wash 10 mM imidazole, elution 150 mM imidazole

| Variant | percent of parent [%] |
| --- | --- |
| chain 1 L112W | 95 |
| chain 1 L112A | 47 |
| chain 1 E108S | 76 |
| chain 1 A115W | 45 |
| chain 1 E140S | 67 |

Variants of: B1
Experiment: His-tag pull-down (Talon metal affinity resin), SDS-PAGE band densitometry; 200 μg His-MtlR, 200 μg HPr, 20 μl EI-overproducing cell lysate, 2 mM MgCl2, 50 μl Talon resin; no PEP

| Variant | percent of parent [%] |
| --- | --- |
| chain 1 E108S | 65 |
| chain 1 E108S, chain 1 E140S | 35 |
| chain 1 E140S | 68 |
